The results in this text go back to US20180111972A1.

For test [1], the target named is human PDGFR on BJ-5ta human fibroblasts (human) (UniProt P09619). Put plainly: flow cytometry on cells, soluble ligand titrated. For orientation: In flow cytometry, cells or beads pass a laser one at a time.
Test [2] shares this target. Briefly: flow cytometry titration of the soluble FLAG-tagged protein on BJ-5ta cells, anti-FLAG detection.
Test [3] has the same target. Put plainly: flow cytometry on cells, soluble ligand titrated 3 h at 4 C, anti-FLAG-PE.
Test [4] shares this target. Put plainly: flow cytometry on BJ-5ta cells, soluble ligand titrated 5 h at 4 C, anti-FLAG-PE.
The target of test [5] is mouse PDGFR on NIH/3T3 mouse fibroblasts (mouse) (UniProt P05622). Briefly: flow cytometry on cells, soluble ligand titrated.
The target is the same in test [6]. Put plainly: flow cytometry on cells, soluble ligand titrated 3 h at 4 C, anti-FLAG-PE.

Numbering of substitutions follows the chain as printed. Names may count otherwise.

B1: PVAM-S (PV R32A), soluble, FLAG and hexahistidine tags (designed binder)
chain: DYKDDDDKIAEPAMIAECHPIETLVDILQEYPDEIGYIFKPSCVPLMRCGGCCNNRNVQCRPTEESNITMQIMRIKPHRGQHIGEMSFLQHNKCRCETVAAGSTSGSGKSSEGKGEVVKFMDVYQRSYCKTRTEVFEISRRLIDATNANFLVWPPCVEVQRCSGCCNHEGLECVPTQVQLRPVQVRKIEFVRKKPIFKKATVTLEDHLACECRPKKDHHHHHH
The EC50 (read off the curve) is the concentration giving half of the maximal effect. A word on the Kd: it is the free concentration of one partner at which half of the binding sites on the other are occupied at equilibrium, for simple one-to-one binding. Read a high Kd as weaker binding. On to B1, for which, in test [1], the fold decrease in Kd compared to PV6 is 41 fold. In addition, the EC50 (read off the curve) in test [2] was found to be 6 pM. Also, the results for the Kd in test [3] and in test [4] were 10.9 pM and 5.1 pM, respectively.

B2: PV RF (PV K87R chain 1 and PV I182F chain 2), soluble, FLAG and hexahistidine tags (designed binder)
chain: B1 chain with L28F, G36E, R79Q, A145R, H168D
As for B2, the fold decrease in Kd compared to PV6 in test [5] came to 22 fold; in test [1], 63 fold. Moreover, the Kd stood at 15 pM in test [6] and 7.1 pM in test [3].
